Laboratory results: patent US20240262899A1 (UNIVERSITY OF VIRGINIA PATENT FOUNDATION, published 2024)

Biological target: T1, histone H3 (H3) peptide, unmodified (UniProt P68431 2-31)
T1 construct: A synthetic peptide of histone H3, not the whole protein; also called unmodified H3
Assay: western blot of peptides
Procedure: Four distinct peptides—histone H3 (H3), citrullinated histone H3 (CitH3; 4 Cit), acetylated histone H3 (AccH3), and methylated histone H3 (MetH3)—at a concentration of 0.5 microgram each, were run in duplicate through SDS-polyacrylamide gel electrophoresis and then transferred to a nitrocellulose membrane (FIG. 7A). This membrane was split into two sections for parallel probing with an equal quantity of Cayman CitH3-mAb (Ann Arbor, MI) or hCitH3-mAb (2 μg/ml) overnight. Post three extensive washes, the sections were incubated with HRP-conjugated secondary antibodies specific to mouse IgG and human IgG (Jackson ImmunoResearch Labs. Cat #309-035-008), respectively, for 2 hours. For concurrent signal development, both membrane sections were exposed simultaneously for the same duration.

B1: Y1128-VH3/VL3 (hCitH3-mAb) (antibody, V domains shown)
VH: EVQVVQSGAEVKKPGATVKISCKASGFNIKDYYMHWMKQRPEQGLEWIGWIDPENGNTIYDPKFQGRATITSDTSTDTAYLELSSLRSEDTAVYYCAPFGNYVWFAYWGQGTLVTVSS
VL: DVLMTQSPLSLPVTLGQPASISCRSSQSIVHSNGITYLEWYLQRPGQSPKLLIYKVSNRFSGVPDRFSGSGSGTDFTLKISRVEAEDVGLYYCFQGSHVPFTFGQGTKLEIKR
notes: Final lead humanized antibody; intact IgG, detected with anti-human IgG secondary; also called H3L3; humanized CitH3 monoclonal antibody
Question: Does B1 bind?
Answer: no binding (tested: 2 ug/ml antibody; 0.5 microgram peptide)
